Laboratory results reported in paper PMC11417369, “DNA sequence and chromatin differentiate sequence-specific transcription factor binding in the human malaria parasite Plasmodium falciparum”.
Changes are numbered by the printed parent chain.

T1: PF3D7_0420300 D1 (Plasmodium falciparum, UniProt Q8I1N6 1956-2015)
T1 sequence: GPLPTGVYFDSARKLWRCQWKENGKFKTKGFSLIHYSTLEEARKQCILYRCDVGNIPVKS

B1: CACACA_negctrl_site1218 (dsDNA)
DNA 1: TAATTTTTTTTTTTTTTTTTTTTTTTTTTTTTTTTA
DNA 2: TAAAAAAAAAAAAAAAAAAAAAAAAAAAAAAAATTA
B2: CACACA_negctrl_site1833 (dsDNA)
DNA 1: TAATATTTTTATTATTAGAATTGTATATGTTTAATA
DNA 2: TATTAAACATATACAATTCTAATAATAAAAATATTA
B3: CACACA_negctrl_site1137 (dsDNA)
DNA 1: ATTATAAAAGAATTTTTTTTTATTTCATTAAAATAT
DNA 2: ATATTTTAATGAAATAAAAAAAAATTCTTTTATAAT
B4: CACACA_negctrl_site930 (dsDNA)
DNA 1: ACATATATATATATATATATATATATATATTCTTAA
DNA 2: TTAAGAATATATATATATATATATATATATATATGT
B5: CACACA_negctrl_site392 (dsDNA)
DNA 1: TGGTCTTTTAAACAAAAATATAAATTTTTAAATATG
DNA 2: CATATTTAAAAATTTATATTTTTGTTTAAAAGACCA
B6: CACACA_site8825 (dsDNA)
DNA 1: AAAAAAGATAATTATGCACACACACCCACCCACCCA
DNA 2: TGGGTGGGTGGGTGTGTGTGCATAATTATCTTTTTT
B7: CACACA_negctrl_site510 (dsDNA)
DNA 1: TAATATCTAAAAAATATATTTTTTATTTTTTATTAA
DNA 2: TTAATAAAAAATAAAAAATATATTTTTTAGATATTA
B8: CACACA_negctrl_site892 (dsDNA)
DNA 1: TTAATATATAATAAATTTTTTTTTTTTTTTTTTTTT
DNA 2: AAAAAAAAAAAAAAAAAAAAATTTATTATATATTAA
B9: CACACA_negctrl_site1120 (dsDNA)
DNA 1: TCTCAAAAAAAAAAAAAAAAAAAAAAATTAAAAAAT
DNA 2: ATTTTTTAATTTTTTTTTTTTTTTTTTTTTTTGAGA
B10: CACACA_negctrl_site553 (dsDNA)
DNA 1: TTTTTATATTATTTAATGAGAAATAATTATAAACAA
DNA 2: TTGTTTATAATTATTTCTCATTAAATAATATAAAAA
B11: CACACA_negctrl_site681 (dsDNA)
DNA 1: CACAAAGGTCTGAAATTTTAGGGGTGCCTGGGACTA
DNA 2: TAGTCCCAGGCACCCCTAAAATTTCAGACCTTTGTG
B12: CACACA_negctrl_site1280 (dsDNA)
DNA 1: TTATTAAGTAAATCACATTTAATTTTTTTTTTTTTT
DNA 2: AAAAAAAAAAAAAATTAAATGTGATTTACTTAATAA
B13: CACACA_negctrl_site27 (dsDNA)
DNA 1: TTTTTTGGGTAAAATTATAAAATATGTATATATAAA
DNA 2: TTTATATATACATATTTTATAATTTTACCCAAAAAA
B14: CACACA_negctrl_site1078 (dsDNA)
DNA 1: TAAATTCTTTAAAACTTTAAAACAAAAAAAAAAAAA
DNA 2: TTTTTTTTTTTTTGTTTTAAAGTTTTAAAGAATTTA
B15: CACACA_negctrl_site307 (dsDNA)
DNA 1: TATTCTATAAATATATTTTTTTAATTTTTTATTTTA
DNA 2: TAAAATAAAAAATTAAAAAAATATATTTATAGAATA
B16: CACACA_negctrl_site1696 (dsDNA)
DNA 1: TTCCTTCAAAATTTAAGTAATAAGATAAAAATATAA
DNA 2: TTATATTTTTATCTTATTACTTAAATTTTGAAGGAA
B17: CACACA_negctrl_site1830 (dsDNA)
DNA 1: ATGGACATTTTATAAATCACAATGGATATTTTATAA
DNA 2: TTATAAAATATCCATTGTGATTTATAAAATGTCCAT
B18: CACACA_negctrl_site10 (dsDNA)
DNA 1: AAATCACAAAAAAAAAAAAAAATATATATATATATA
DNA 2: TATATATATATATATTTTTTTTTTTTTTTGTGATTT
B19: CACACA_negctrl_site1763 (dsDNA)
DNA 1: AAAAAAAAATATACATATATATATATATATATATAT
DNA 2: ATATATATATATATATATATATGTATATTTTTTTTT
B20: CACACA_negctrl_site1522 (dsDNA)
DNA 1: TTTTTATGTTATCAAATAAATATAAATATAATTCAT
DNA 2: ATGAATTATATTTATATTTATTTGATAACATAAAAA
B21: CACACA_negctrl_site521 (dsDNA)
DNA 1: TAGTTCTTTTAATTTAGTATTATACAATATTGGAAA
DNA 2: TTTCCAATATTGTATAATACTAAATTAAAAGAACTA
B22: CACACA_negctrl_site1272 (dsDNA)
DNA 1: ATTTTTTTTTTTTTTTTTTTTTTTTAGATTAAGAAA
DNA 2: TTTCTTAATCTAAAAAAAAAAAAAAAAAAAAAAAAT
B23: CACACA_negctrl_site17 (dsDNA)
DNA 1: AAAAGAAAAAAAAAAAAAAAAAAAATTAAAATATAA
DNA 2: TTATATTTTAATTTTTTTTTTTTTTTTTTTTCTTTT
B24: CACACA_negctrl_site84 (dsDNA)
DNA 1: CACACTTTTTAAATTAACGCATTTCAAAAAAAATAT
DNA 2: ATATTTTTTTTGAAATGCGTTAATTTAAAAAGTGTG
B25: CACACA_site8429 (dsDNA)
DNA 1: TAAGAAATAAATAGTACACACATAGACACCCACCCA
DNA 2: TGGGTGGGTGTCTATGTGTGTACTATTTATTTCTTA
B26: CACACA_negctrl_site641 (dsDNA)
DNA 1: TCTTGACGAAGTAGAAGGATATATATATAAAAAAAA
DNA 2: TTTTTTTTATATATATATCCTTCTACTTCGTCAAGA
B27: CACACA_negctrl_site1348 (dsDNA)
DNA 1: TTATTATCATCAAATCAAAAAATTCTTTTACCTGTT
DNA 2: AACAGGTAAAAGAATTTTTTGATTTGATGATAATAA
B28: CACACA_site2222 (dsDNA)
DNA 1: GGAAAAAATATATGCACACCCCCCAAAAAAAAAAAA
DNA 2: TTTTTTTTTTTTGGGGGGTGTGCATATATTTTTTCC
B29: CACACA_negctrl_site558 (dsDNA)
DNA 1: TTTTTTATATTAAATGAAGAATATACAAAATTTTAA
DNA 2: TTAAAATTTTGTATATTCTTCATTTAATATAAAAAA
B30: CACACA_negctrl_site232 (dsDNA)
DNA 1: AAACAAAATTTATTTCAAAGTTAATAATTTTTATGT
DNA 2: ACATAAAAATTATTAACTTTGAAATAAATTTTGTTT
B31: CACACA_negctrl_site1320 (dsDNA)
DNA 1: TTTTAAAACAATGAGATTCCTTTCTTTTTTTCTTTT
DNA 2: AAAAGAAAAAAAGAAAGGAATCTCATTGTTTTAAAA
B32: CACACA_negctrl_site309 (dsDNA)
DNA 1: TTATTCCTTTTCCTTTTTTTTTTTTAACCAAAAAAA
DNA 2: TTTTTTTGGTTAAAAAAAAAAAAGGAAAAGGAATAA
B33: CACACA_negctrl_site916 (dsDNA)
DNA 1: TTTTTAAATAACCTATATATTATTATGAAACATAAA
DNA 2: TTTATGTTTCATAATAATATATAGGTTATTTAAAAA
B34: CACACA_site319 (dsDNA)
DNA 1: TATGTAACCTGTTTTACACACCCCCACCCCCCTCTT
DNA 2: AAGAGGGGGGTGGGGGTGTGTAAAACAGGTTACATA
B35: CACACA_negctrl_site285 (dsDNA)
DNA 1: TATTATGTCTAAAATAACATATTAATATATTATTTC
DNA 2: GAAATAATATATTAATATGTTATTTTAGACATAATA
B36: CACACA_site2373 (dsDNA)
DNA 1: ATGTTCTTTAAAACCACACACCCCCCAACCCCCCTC
DNA 2: GAGGGGGGTTGGGGGGTGTGTGGTTTTAAAGAACAT
B37: CACACA_negctrl_site514 (dsDNA)
DNA 1: AGATTTCAAGGTAATAGATCAATTTTAATTTGTAAA
DNA 2: TTTACAAATTAAAATTGATCTATTACCTTGAAATCT
B38: CACACA_negctrl_site609 (dsDNA)
DNA 1: GTATATATATATATATATATATATATATATATATAT
DNA 2: B38 DNA 1 with G1A, T36C
B39: CACACA_negctrl_site219 (dsDNA)
DNA 1: GCAAAACATTTTTAAAATAAAAATAATAAAATATAT
DNA 2: ATATATTTTATTATTTTTATTTTAAAAATGTTTTGC
B40: CACACA_negctrl_site1331 (dsDNA)
DNA 1: AATATAATCTTTCAAAAGAAAAAGACTTCATGAAAA
DNA 2: TTTTCATGAAGTCTTTTTCTTTTGAAAGATTATATT
B41: CACACA_negctrl_site1550 (dsDNA)
DNA 1: TAAAATTAATAAAATATTTTCACTTAATATATATAA
DNA 2: TTATATATATTAAGTGAAAATATTTTATTAATTTTA
B42: CACACA_negctrl_site60 (dsDNA)
DNA 1: TTATAGGTTCTATACATATATTTATATATGTACAGA
DNA 2: TCTGTACATATATAAATATATGTATAGAACCTATAA
B43: CACACA_negctrl_site165 (dsDNA)
DNA 1: TCTCAAGTTGTTAAAAAATAAAAACAATAAATCTAA
DNA 2: TTAGATTTATTGTTTTTATTTTTTAACAACTTGAGA
B44: CACACA_negctrl_site571 (dsDNA)
DNA 1: TTTGTAATAAACTACTTTTTTTTTTTTTTTTTTTTT
DNA 2: AAAAAAAAAAAAAAAAAAAAAGTAGTTTATTACAAA

Biological target: T1, PF3D7_0420300 D1
Assay: gcPBM; about 25 ug protein; PBS, 1% milk, 0.2 mg/ml BSA, salmon testes DNA, 0.03% Triton X-100
Details: tags: N-terminal GST (pGEX-4T-1), kept; label: surface-attached array probe

| Binder | binding signal |
| --- | --- |
| B1 | 8.72 ln median PBM intensity, better of two orientations |
| B2 | 8.92 ln median PBM intensity, better of two orientations |
| B3 | 8.74 ln median PBM intensity, better of two orientations |
| B4 | 8.93 ln median PBM intensity, better of two orientations |
| B5 | 8.76 ln median PBM intensity, better of two orientations |
| B6 | 10.6 ln median PBM intensity, better of two orientations |
| B7 | 8.86 ln median PBM intensity, better of two orientations |
| B8 | 8.85 ln median PBM intensity, better of two orientations |
| B9 | 8.78 ln median PBM intensity, better of two orientations |
| B10 | 8.82 ln median PBM intensity, better of two orientations |
| B11 | 8.87 ln median PBM intensity, better of two orientations |
| B12 | 8.82 ln median PBM intensity, better of two orientations |
| B13 | 8.81 ln median PBM intensity, better of two orientations |
| B14 | 8.74 ln median PBM intensity, better of two orientations |
| B15 | 8.77 ln median PBM intensity, better of two orientations |
| B16 | 8.8 ln median PBM intensity, better of two orientations |
| B17 | 8.96 ln median PBM intensity, better of two orientations |
| B18 | 8.95 ln median PBM intensity, better of two orientations |
| B19 | 8.93 ln median PBM intensity, better of two orientations |
| B20 | 8.91 ln median PBM intensity, better of two orientations |
| B21 | 8.91 ln median PBM intensity, better of two orientations |
| B22 | 8.84 ln median PBM intensity, better of two orientations |

| Binder | binding signal |
| --- | --- |
| B23 | 8.84 ln median PBM intensity, better of two orientations |
| B24 | 8.95 ln median PBM intensity, better of two orientations |
| B25 | 10.6 ln median PBM intensity, better of two orientations |
| B26 | 8.88 ln median PBM intensity, better of two orientations |
| B27 | 8.94 ln median PBM intensity, better of two orientations |
| B28 | 10.7 ln median PBM intensity, better of two orientations |
| B29 | 8.73 ln median PBM intensity, better of two orientations |
| B30 | 8.93 ln median PBM intensity, better of two orientations |
| B31 | 8.89 ln median PBM intensity, better of two orientations |
| B32 | 8.9 ln median PBM intensity, better of two orientations |
| B33 | 8.75 ln median PBM intensity, better of two orientations |
| B34 | 10.7 ln median PBM intensity, better of two orientations |
| B35 | 8.94 ln median PBM intensity, better of two orientations |
| B36 | 10.6 ln median PBM intensity, better of two orientations |
| B37 | 8.83 ln median PBM intensity, better of two orientations |
| B38 | 8.9 ln median PBM intensity, better of two orientations |
| B39 | 8.88 ln median PBM intensity, better of two orientations |
| B40 | 8.86 ln median PBM intensity, better of two orientations |
| B41 | 8.87 ln median PBM intensity, better of two orientations |
| B42 | 8.89 ln median PBM intensity, better of two orientations |
| B43 | 8.93 ln median PBM intensity, better of two orientations |
| B44 | 8.96 ln median PBM intensity, better of two orientations |
